Data published in the supplement of paper PMC9170038.

Test system: MS2 coat protein
Assay: apparent KD of MS2 coat protein; designed switch direction (-1 OFF switch, 1 ON switch): 1; higher = weaker reporter binding
How it was run: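 The apparent KD reported per design is the median over clusters of curve fits to normalised cluster fluorescence. The RNA switches were transcribed on Illumina chips by stalled E. coli RNA polymerase. SNAP-549-labelled MS2 coat protein was titrated from 0.7 or 1.5 nM, doubling up to 3 µM, in Tris-HCl pH 7.5 buffer containing KCl, MgCl2, BSA, DTT, tRNA and Tween-20, with no input, 200 uM small-molecule ligand, or an oligonucleotide input.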

[1] = input ligand: microRNA oligo, concentration not stated
[2] = Eterna round: R95, input ligand: microRNA oligo, concentration not stated
[3] = Eterna round: R95, input ligand: FMN 200 uM
[4] = Eterna round: R95, input ligand: none

Sequence	apparent KD of MS2 coat protein (input ligand: FMN 200 uM) [nM]	apparent KD of MS2 coat protein [1] [nM]	apparent KD of MS2 coat protein (input ligand: none) [nM]	apparent KD of MS2 coat protein [2] [nM]	apparent KD of MS2 coat protein [3] [nM]	apparent KD of MS2 coat protein [4] [nM]
AGAGCCGGCACUGAGGAUAUUCAUAUUAAAACAUGAGGAUCACCCAUGUAGGCCAGAAGGCCUUGGGAGAAGGCAGGUCGGCUCU [Mat - Same State 2 - Mod of UCT - D61] (Eterna round: R96, puzzle: Same State 2)	18.7	201	366			
GCCAACACAUGAGGAUAUGGCACCUUAUUGGUGCCAGAAGGCAUGUGAAUUCACAUGAGGAUCACCCAUGUAUUAUAGUUGGCA [Fiskers NG1ss - 19] (Eterna round: R96, puzzle: Same State NG 1)	18.8	75.1	121			
GAGUAGUUGAAAGGAUAUGGAUUGUUAUAGAAUCCAGAAGGUUCUAACAUGAGGAUCACCCAUGUAGGACUAUUCCUGUGUAUC [Parity 79 - Jieux - Same State NG 1] (Eterna round: R96, puzzle: Same State NG 1)	10.2	9.3	12.2			
AAUUAAGAUCGAGGAUAUCACGUCGUUUAGACGUGAGAAGGCGAUCAUAACAUGAGGAUCACCCAUGUAUUACAUGAAUUAAUU [SSNG1/4-B3] (Eterna round: R96, puzzle: Same State NG 1)	20.6	26.6	29.1			
GCUAGUAUUAUUGUCAACAUGAGGAUCACCCAUGUAUGUUGGCAGGAUAUCGUUUGCAAAGCAAACGAGAAGGGCUAAACUAGC [Mat - Same State NG 3 - JL Mod - D10] (Eterna round: R96, puzzle: Same State NG 3)	71.9	105	185			
UUUAUACAUGAGGAUCACCCAUGUCAACAAAGUCGAGGAUAUGGGCAUAUUAUCUUAUUUCCAGAAGGCGAAUUCU [salish99_ss1_r3_090] (puzzle: Same State 1)				158		
CUGGCGCGCACAGGAUAUGCGGCCGGCAAGGUGGCAGAAGGGUGAUAAACAGACGACAUGAGGAUCACCCAUGUCGCAAAGAAU [Arsobe] (Eterna round: R96, puzzle: Same State NG 1)	214	71.3	85.4			
UUUGGGUGGCUGGAGGAUAUCCUGGUUGUUACAUGAGGAUCACCCAUGUGCCGCGCGGUUCGCGAGGAGAAGGCUGGCGGCCGUU (puzzle: Same State 2)				91.2		
CUGAAAUGUCAAGGAUAUCACGUCGAUUAGACGUGAGAAGGUGAUCUGCACAUGAGGAUCACCCAUGUGUUACAUGGGAAUCAG [Brourd's SSNG1/1-A2 mod 15] (Eterna round: R96, puzzle: Same State NG 1)	289	90.3	624			
AGCUAUUAAUCAGGAUAUAGUGACAUGAGGAUCACCCAUGUAUUGAUGAUGAAAUGUGGUCGCCGCUAGAAGGGAUUACUAACA [SameState NG2 #45] (Eterna round: R96, puzzle: Same State NG 2)	75.1	27.7	34			
AUCCGGAAGCGAGGAUAUGCAGAGGAUCACCCUGCAGAAGGCGCAAAAGCGAGGAUAUGCAGAGGAUCACCCUGCAGAAGGCGC [pwkr ssNG DX.28] (Eterna round: R96, puzzle: Same State NG 1)	14	12.6	42.1			
AGAUCAUGACGAGGAUAUGGUACAUGAGGAUCACCCAUGUAUGUACCAUAACGCGUACGACGAAACCAGAAGGCGUCGUGGUCA [JL SSNG2 1.08] (Eterna round: R96, puzzle: Same State NG 2)	11.7	14.8	27			
GGUCCAGCCUGAGCUGGACUAUAGCAUGUACAUGAGGAUCACCCAUGUCAUGUACAAGUAUGUUGUUUGUCUUGAAA [Sensorship 6 - Jieux - Sensor for hsa-mir-208a] (puzzle: Sensor for hsa-mir-208a)				15.3	21.4	20.2
ACAUAGGGAACAGGAUAUGGGAAAAUUCCCUACAUGAGGAUCACCCAUGUCCGUAGGGACAACAUCCAGAAGGGUUACCACAUA [Eternabot solution 1] (Eterna round: R96, puzzle: Same State NG 2)	211	549	656			
AGCACGGGAUUGGAGGAUAUGUUGUUUGCAACAUGAGGAUCACCCAUGUCUGAGGCUGAAAAGCAGCAGAAGGCCGAUACAACCA [SS2-1.2] (Eterna round: R96, puzzle: Same State 2)	60.1	154	198			
GGUAGGUUACUACCAGACAUGAGGAUCACCCAUGUAAGUGGGAAGGAUAUGGUACCGUUUCGGUACCAGAAGGUCCUAAAUGAG [JL SSNG3 1.46] (Eterna round: R96, puzzle: Same State NG 3)	332	1650	1220			
GGUUUAGCCAGGCGCAAUUGCGCCUGAAAACAUGAGGAUCACCCAUGUUUGGGACAAGCUUUGCUCCUCGUCUUGCA [Edreisza] (puzzle: Sensor for hsa-mir-208a)				41.9	243	330
GUGCGGGUGCCACAGGAUAUACGUGGAUCGACAUGAGGAUCACCCAUGUAUAUCCUAAUAAUUGCGUAGAAGGGUGGUCAGCCGU [Enbebiqu] (puzzle: Same State 2)				308	85.9	340
AGUCCAGCCUGAGCUGGACAAAAGCAUGUACAUGAGGAUCACCCAUGUUCAUGUACAAGCUUUUUGCUCGUCUUAAA [salish99_208a_r3_026] (puzzle: Sensor for hsa-mir-208a)				14.6	483	533
GAGUGACAUGAGGAUCACCCAUGUAGAAUAGAACAAGGAUAUGUGGAAGGCGGAGGAGAGACAGAAGGUGUUGAAG [JR_SS1_Sub057] (puzzle: Same State 1)				46	49	67.7
GCUCGGCUGAUGGCCUACAUGAGGAUCACCCAUGUGUGUGGGCAGGAUAUCUAGAUUAAGGAUGUAGAGAAGGGCCUGCCGAGC [SameState NG3 #38] (Eterna round: R96, puzzle: Same State NG 3)	2620	340	972			
ACAAGCUUUUUAGGAGAGAAAGGUGGGAUACAUGAGGAUCACCCAUGUAUUGUUGUUAAUAGUGGACCUCGUCUUAU [JR_SHM208A_Sub083] (puzzle: Sensor for hsa-mir-208a)				15.7	26.5	29.2
GGACGUCAUCUCACUGAUUAAACAUGAGGAUCACCCAUGUCACAGGAUAUGGAUCCGAUUAGGAUCCAGAAGGGUGUGACGUCC [Fiskers NG3ss - 43] (Eterna round: R96, puzzle: Same State NG 3)	21.4	19.3	24.2			
UGUUGGAAGUGAGGAUAUGGGAAAGGAAGUGUACCAGAAGGCACAUCUAGCCGGAACAUGAGGAUCACCCAUGUACCACACUAC [PowerStrip SSNG 1.15] (Eterna round: R96, puzzle: Same State NG 1)	128	24.6	30.7			
AUUUAACAAGCUUUUUGCUCGUCUUAUAAACAUGAGGAUCACCCAUGUAAUAGCGUGAGAGUUAUUAUAUAAAUAAU [JMF 87] (puzzle: Sensor for hsa-mir-208a)				33.1	18	16.7
UACAAUCUAUCUGAGGAUAUCAUGAUAAUAACAUGAGGAUCACCCAUGUGCAGGAAAACUGCAUAUGAGAAGGCAGAUAGAUUGA [Mat - Same State 2 - Mod - D13] (puzzle: Same State 2)				93.1	89.9	417
CUCCCAGCGGGAGGAUAUGGUGCCUUGUUGGUGCUAGAAGGUCCAACAUGAGGAUCACCCAUGUGGGAGUGGUUGAGAGACCUC [SS NG10LRO12] (Eterna round: R96, puzzle: Same State NG 1)	218	166	278			
